Results taken from paper PMC6380602, “The polymeric immunoglobulin receptor-like protein from Marsupenaeus japonicus is a receptor for white spot syndrome virus infection” (PLoS Pathogens, 2019).

Target: the molecule itself
Assay: cross-linking; BS3 (5 mM, 2 h, room temperature) on hemocytes of shrimp 30 min after WSSV injection, SDS-PAGE, western blotting with anti-MjpIgR antibodies; oligomer size by molecular mass

B1: native MjpIgR (Marsupenaeus japonicus polymeric immunoglobulin receptor-like protein) (receptor, UniProt A0A3S8D7Y1 1-562, looked up)
chain: QEYSVDEPNNRDVVFNGVQSSDVSLIFDDADIIVNPGERLDLNCGFQGQYRHCIWELEGAKPIQVQDVYDDVHPGMSRPEVSEGNECGIVINSVSTEQHGKWTCRVFITGNSLEGSKKVIVTVKPTYPILEVDNSQLLEVTSDAETPVKCVVAAARPAVGIRWFLGDKDVTVMAETEETPTDNEGMYKSISTLRRTFEPMENGMMLVCSVSHKTLTVPENASIPLNVVFKPVEKPVSTYYQIRPGSDYEVKLNFSANPPPTRKEWRYGDTFQNIAVSIEIPGAKDRYETYIEELGNGMYTATLRIAGFKEEDANQRYMLVVQNDLGETSYKVRLSMDDAPKDGDSETRDHDKNPSTEYSVSEGIVFDDDTMSNTLSGGAVAGIVIVVLIIVTAVAAAGYARYRQMFCFAPVVTPDPEEGKETKEEHSDTESARGANTTRAANLKNSLGRLTQVFKKPKKEQETKLENIGDDEKRSLTTEDPKKGSPIKEQNVDDKEVVYAELDLGKSESDKKTEVKAEDKTEYAQIVGTVTDNREDEKKE
notes: also called pIgR-like protein; source: endogenous, hemocytes of M. japonicus 30 min after WSSV injection
stoichiometry N: 4
